Results taken from the supplement of paper PMC10567573.
± gives the standard deviation.

Experiment: protein stability index of a GFP-peptide fusion (GPS, HEK-293T) (PSI 1-6); higher = more stable
[1] = treatment: DMSO, c terminus: a fixed tail appended
[2] = treatment: MLN4924 1 uM, 8 h, c terminus: a fixed tail appended
[3] = treatment: DMSO, c terminus: native
[4] = treatment: MLN4924 1 uM, 8 h, c terminus: native
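Also: 24-mer peptide tiles fused after GFP, lentivirally expressed, FACS-sorted into six equal bins by GFP/DsRed ratio, decoded by Illumina sequencing, PSI is the read-weighted mean bin number.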

QKAPMTTVRGLHCMCTVGERLYVI [KLHL13]
protein stability index [1]: 3.21 ± 0.61
protein stability index [2]: 2.75 ± 0.52

QVLKKIAQKALDLPSSGEGLAFFT [HMOX1]
protein stability index [1]: 2.57 ± 0.7
protein stability index [2]: 2.02 ± 0.41

PPVWYLKEEDHYQRARKEREKEDY [RHOBTB2]
protein stability index [1]: 5.16 ± 0.12
protein stability index [2]: 5.22 ± 0.16

HVLIHNTLQQLQAALRLAPAPALP [SERTAD3]
protein stability index [1]: 2.51 ± 0.47
protein stability index [2]: 2.55 ± 0.2

TTYLKTIEVFDPDANTWRLYGGMN [KLHL20]
protein stability index [1]: 2.34 ± 0.23
protein stability index [2]: 2.26 ± 0.042

HPVLHKEEKQHLERLNKEYQEIFQ [TRIM43]
protein stability index [1]: 3.9 ± 0.47
protein stability index [2]: 4.06 ± 0.4

VDIGMMKEFILTDEEVQRKREMIL [VDR]
protein stability index [1]: 3.24 ± 0.19
protein stability index [2]: 3.24 ± 0.19

ERERQPCGDGNTETHRAPDLVQWT [SOAT2]
protein stability index [1]: 4.92 ± 0.06
protein stability index [2]: 4.65 ± 0.24

QALRENTYPFLAMIMLKDRRMTVV [FAF2]
protein stability index [1]: 2.23 ± 0.31
protein stability index [2]: 1.96 ± 0.21

TIEELQQKILCSKSENARLVVQID [KRT33B]
protein stability index [1]: 3.38 ± 0.19
protein stability index [2]: 3.28 ± 0.53

TSSCPNVSERSFDNVRSLKVESGA [CRYBA1]
protein stability index [1]: 5 ± 0.44
protein stability index [2]: 4.63 ± 0.2

PEEKKEEEGSANRRPEDQELESLS [CHGA]
protein stability index [1]: 5.58 ± 0.34
protein stability index [2]: 5.71 ± 0.12

VGCKGSKAGIEQEGYWLPGDEISI [ZMYND11]
protein stability index [1]: 3.18 ± 0.32
protein stability index [2]: 3.13 ± 0.31

KLWNPRNFKAHVSPHEMLQAVVLC [USP39]
protein stability index [1]: 2.63 ± 0.57
protein stability index [2]: 2.88 ± 0.47

EQNQEGDAAYRKALDLAREFLPQG [AUH]
protein stability index [1]: 4.42 ± 0.19
protein stability index [2]: 4.44 ± 0.37

TQRRTSMGGTQQQFVEGVRMEEIV [CTNNB1]
protein stability index [1]: 4.05 ± 0.47
protein stability index [2]: 4.26 ± 0.37

VTDINDNAPKFQAENLDVKINENV [PCDHGA10]
protein stability index [1]: 5.22 ± 0.1
protein stability index [2]: 5.01 ± 0.37

RVEDAFYTLVREIRQYRLKKISKE [KRAS]
protein stability index [1]: 2.3 ± 0.17

LELGHWLYQTELVENECYQVFLDR [TOR1AIP2]
protein stability index [1]: 2.38 ± 0.038
protein stability index [2]: 2.26 ± 0.32

VRTLEGVFQHHQYLSPLERKRLAR [VENTX]
protein stability index [1]: 3.23 ± 0.23
protein stability index [2]: 3.54 ± 0.47

NTGKTYFFVANKYWRYDEYKRSMD [MMP1]
protein stability index [1]: 1.98 ± 0.17
protein stability index [2]: 2.2 ± 0.19

GKSILLFGGAAAVAILAVAIGVAL [BCL2L13]
protein stability index [1]: 2.98 ± 0.057
protein stability index [2]: 2.87 ± 0.3

RLNYDRKELEKRREESQHEIKDVL [PPFIA4]
protein stability index [1]: 3.65 ± 0.42
protein stability index [2]: 4.76 ± 0.3

HLLGIPHSVLQIRYSGKILKNNET [IQUB]
protein stability index [1]: 2.77 ± 0.41
protein stability index [2]: 2.32 ± 0.38

VVKVISTIPATLLVDHVGSKTFLC [SLC2A12]
protein stability index [1]: 2.95 ± 0.43
protein stability index [2]: 2.75 ± 0.37

KAELGALPHDFIDSLEKTDDDKYK [NLN]
protein stability index [1]: 5.31 ± 0.2
protein stability index [2]: 5.2 ± 0.32

LERYVASLMPLQKSISPWKSPPQL [DENND6A]
protein stability index [1]: 2.16 ± 0.28
protein stability index [2]: 2.21 ± 0.25

LGFAYAKEDKIMLDDRKNEEDGGA [MIA2]
protein stability index [1]: 4.96 ± 0.13
protein stability index [2]: 5.18 ± 0.2

FRLTTLLMSGCSSELKNRMEYALN [PLK2]
protein stability index [1]: 2.46 ± 0.53
protein stability index [2]: 2.35 ± 0.47

LRLLREEEYVAPPRGPLPTLQVVP [TRAF3IP2]
protein stability index [1]: 2.96 ± 0.3
protein stability index [2]: 3.23 ± 0.14

EPNTFSPANVDASVMFRKWRDSKG [UBE2R2]
protein stability index [1]: 4.16 ± 0.46
protein stability index [2]: 4.4 ± 0.3

GGEAAHHTRSPYSTFYPPYHSPEL [NEUROD6]
protein stability index [1]: 3.38 ± 0.2
protein stability index [2]: 3.58 ± 0.12

IYLATSSSKFYDLFLMECEESPNG [RHOBTB1]
protein stability index [1]: 2.66 ± 1.7
protein stability index [2]: 2.71 ± 0.98

VNQPNNNGFTPLHFAAASTHGALC [ANKRD44]
protein stability index [1]: 2.99 ± 0.3
protein stability index [2]: 3.06 ± 0.33

PHAPPFAGGHPAQLGLGRGASTFK [JUNB]
protein stability index [1]: 4.11 ± 0.083
protein stability index [2]: 4.34 ± 0.066

LKPNNLSCDLPEERYRHEIAHDGQ [KLHDC10]
protein stability index [1]: 4.8 ± 0.2
protein stability index [2]: 4.8 ± 0.074

ASLGEKRDHHSTHYRASEEEPEYG [CHGB]
protein stability index [1]: 5.37 ± 0.24
protein stability index [2]: 5.34 ± 0.11

PAPASSTPQEPWPGPTAPSPTSRP [PDLIM7]
protein stability index [1]: 5.07 ± 0.093
protein stability index [2]: 5.13 ± 0.22

PLELMRTKLQAQHVSYRELGACVR [SLC25A39]
protein stability index [1]: 2.67 ± 0.24
protein stability index [2]: 2.92 ± 0.16

SWVDDTPFNKVQSARFWIPGEPNN [CD207]
protein stability index [1]: 2.44 ± 0.15
protein stability index [2]: 2.51 ± 0.45

TLEITLKDIVQTVRSRLEEAGIKV [TENT5C]
protein stability index [1]: 2.02 ± 0.35
protein stability index [2]: 2.18 ± 0.35

TFQEPLYPALRLWEGAISIPRLP [TRIM14]
protein stability index [3]: 2.65 ± 0.62
protein stability index [4]: 2.67 ± 0.66

PNVIEYYENFLEDKALMIAMEYAP [NEK8]
protein stability index [1]: 2.32 ± 0.21
protein stability index [2]: 2.25 ± 0.21

VAPADVRRLLSYCKGRDHGVLDAL [ZSWIM9]
protein stability index [1]: 2.46 ± 0.28
protein stability index [2]: 2.68 ± 0.46

VLFAVGGWCSGDAISSVERYDPQT [KLHL20]
protein stability index [1]: 2.12 ± 0.21
protein stability index [2]: 2.29 ± 0.15

PEVVQHEEFILLSQGEVEKLIKCD [KLHL12]
protein stability index [1]: 3.99 ± 0.4
protein stability index [2]: 3.86 ± 0.75

HNSINQSLDESVIYGPGNLSTNNN [SLC2A12]
protein stability index [1]: 4.68 ± 0.34
protein stability index [2]: 4.7 ± 0.055

LQTDHYAALLGSNSESWGWDIGRG [SPSB2]
protein stability index [1]: 3 ± 0.032
protein stability index [2]: 3.02 ± 0.13

LGSDDEEQEDPADYCKGGYHPVKI [SRPK2]
protein stability index [1]: 4.81 ± 0.31
protein stability index [2]: 4.67 ± 0.31

WKCKNARGQVGLVPKNYVVVLSDG [NCK2]
protein stability index [1]: 2.15 ± 0.26
protein stability index [2]: 2.31 ± 0.45

RAASSQRAEEEDDDIKQLAAWAT [CHMP4C]
protein stability index [3]: 5.34 ± 0.4
protein stability index [4]: 5.2 ± 0.2

PAICALRHLTSRHQEAEMAQNAVR [CTNNB1]
protein stability index [1]: 3.2 ± 0.5
protein stability index [2]: 3.67 ± 0.32

MNRAFSRKKDKTWMHTPEALSKHF [GULP1]
protein stability index [1]: 2.69 ± 0.21
protein stability index [2]: 2.85 ± 0.14

QQPPQQQPSQQQQPPPQEEPGTPS [KLHL14]
protein stability index [1]: 5.67 ± 0.13
protein stability index [2]: 5.61 ± 0.4

FVAGGISGTVAAVLTLPFDVVKTQ [SLC25A39]
protein stability index [1]: 2.95 ± 0.63
protein stability index [2]: 2.76 ± 0.84

PPRIPQADQWKSSNKSLVEALGLE [RHOBTB1]
protein stability index [1]: 4.45 ± 0.27
protein stability index [2]: 4.33 ± 0.26

YHTSQSGDEMTSLSEYVSRMKETQ [HSP90AB1]
protein stability index [1]: 3.9 ± 0.25
protein stability index [2]: 3.96 ± 0.23

STVKDCATIFALSTMTSSVQIYNL [ATL3]
protein stability index [1]: 3.08 ± 0.68
protein stability index [2]: 3.25 ± 0.59

LIQRWYRRYVARLEMRRRCTWSIF [PPEF2]
protein stability index [1]: 2.43 ± 1.3
protein stability index [2]: 2.73 ± 0.57

PGSGPGHGSGSHPGPASGPGPDTG [SPAG8]
protein stability index [1]: 5.36 ± 0.16
protein stability index [2]: 5.34 ± 0.069

YSSEDSTLASVPPAATFGADDLVL [ELF3]
protein stability index [1]: 4.5 ± 0.13
protein stability index [2]: 4.48 ± 0.22

TEATISIREDEVHRLGSPYGHCTA [SCNN1D]
protein stability index [1]: 3.93 ± 0.29
protein stability index [2]: 3.88 ± 0.16

AERLGVTFFEVSPLCNFNITESFT [RAB40B]
protein stability index [1]: 2.13 ± 0.15
protein stability index [2]: 2.22 ± 0.16

LFRWPDLQHAVELKPLCGCHSFAA [SMAD6]
protein stability index [1]: 2.27 ± 0.26
protein stability index [2]: 2.13 ± 0.49

INTLNGLKLQTKTIKVSYARPSSA [ELAVL3]
protein stability index [1]: 2.38 ± 0.2
protein stability index [2]: 2.39 ± 0.26

SDYPSPDISPPIFRRGEKLRVISD [SLA]
protein stability index [1]: 3.88 ± 0.3
protein stability index [2]: 4.2 ± 0.25

AFNQNSSLGRHKRTHTGEKPYTCS [ZNF8]
protein stability index [1]: 3.42 ± 0.33
protein stability index [2]: 3.79 ± 0.49

LAAALAQHSVPLQLELRAGAERLD [TRADD]
protein stability index [1]: 2.97 ± 0.36
protein stability index [2]: 2.94 ± 0.12

GRREGCDICAGKAGCPIVEEPLG [RPS21]
protein stability index [3]: 4.03 ± 0.13
protein stability index [4]: 4.33 ± 0.3

LHVACELARPECLFLLLGHGASPG [ANKRD9]
protein stability index [1]: 2.53 ± 0.61
protein stability index [2]: 2.44 ± 0.45

GYRVSAALEEADKMFLRTREPALD [EID1]
protein stability index [1]: 3.9 ± 0.27
protein stability index [2]: 3.89 ± 0.3

SARYVLPDEAARARLLQEGGGGVA [DUSP5]
protein stability index [1]: 4.33 ± 0.19
protein stability index [2]: 4.13 ± 0.17

LNVDAAVQQWLQKGTPASKLILGM [CHIT1]
protein stability index [1]: 2.21 ± 0.36
protein stability index [2]: 2.25 ± 0.39

AREGGGCGRSEVRPVAPRRPRDAV [SMAD6]
protein stability index [1]: 4.43 ± 0.26
protein stability index [2]: 4.36 ± 0.21

VRTMQNTNDVETARCTAGTLHNLS [CTNNB1]
protein stability index [1]: 3.57 ± 0.33
protein stability index [2]: 3.81 ± 0.32

ASTTRLYLRKGRGETRICKIYDSP [RAD51]
protein stability index [1]: 2.94 ± 0.4
protein stability index [2]: 3.19 ± 0.31

HQKLEREARICRLLKHSNIVRLHD [CAMK2B]
protein stability index [1]: 2.58 ± 0.17
protein stability index [2]: 2.66 ± 0.43

EESRFCDAHLVLDGEEIPVQKNIL [GAN]
protein stability index [1]: 4.73 ± 0.22
protein stability index [2]: 4.68 ± 0.073

RQSLEGLSVRSVFFGVFQSFVVLL [CLPTM1]
protein stability index [1]: 2.04 ± 0.14
protein stability index [2]: 1.99 ± 0.25

KEKANSLKNEIQEVEELDNWQPAV [SPATS1]
protein stability index [1]: 5.24 ± 0.2
protein stability index [2]: 5.25 ± 0.27

RKQLQPTHCKYEGPRKARRLWFA
protein stability index [3]: 2.85 ± 0.39
protein stability index [4]: 3.04 ± 0.13

KQCIVAHPVNPPYYIPLVELVPHP [CRYL1]
protein stability index [1]: 2.33 ± 0.17
protein stability index [2]: 2.47 ± 0.32

DIVDEDVKLMMSTLPKSLSLPTTA [MYBL2]
protein stability index [1]: 3.9 ± 0.27
protein stability index [2]: 3.7 ± 0.27

LKNEIQEVEELDNWQPAVPLMHML [SPATS1]
protein stability index [1]: 2.8 ± 0.45
protein stability index [2]: 3.18 ± 0.38

VQLIDDFKISGMNGIHVCMVFEVL [SRPK2]
protein stability index [1]: 2.73 ± 0.62
protein stability index [2]: 2.71 ± 0.32

VILHLKEDQTEYLEERRVKEVVKK [HSP90AB1]
protein stability index [1]: 2.57 ± 0.25
protein stability index [2]: 2.77 ± 0.36

MQSLDDATKQLDFTRKTLAEKKQE [SASS6]
protein stability index [1]: 5.12 ± 0.24
protein stability index [2]: 5.19 ± 0.27

KMTPVKNYQAHQSRVTMILFVLEL [WDFY2]
protein stability index [1]: 3.19 ± 0.39
protein stability index [2]: 2.88 ± 0.5

GPWLEWEIMLQYCFPRLDINVSKG [PRIM1]
protein stability index [1]: 2.4 ± 0.19
protein stability index [2]: 2.88 ± 0.94
